Experimental data reported in IntAct's records for PubMed 14517307.

Molecular target: nat1_yeast NAT1 (UniProt P12945)
Sequence (P12945 whole entry): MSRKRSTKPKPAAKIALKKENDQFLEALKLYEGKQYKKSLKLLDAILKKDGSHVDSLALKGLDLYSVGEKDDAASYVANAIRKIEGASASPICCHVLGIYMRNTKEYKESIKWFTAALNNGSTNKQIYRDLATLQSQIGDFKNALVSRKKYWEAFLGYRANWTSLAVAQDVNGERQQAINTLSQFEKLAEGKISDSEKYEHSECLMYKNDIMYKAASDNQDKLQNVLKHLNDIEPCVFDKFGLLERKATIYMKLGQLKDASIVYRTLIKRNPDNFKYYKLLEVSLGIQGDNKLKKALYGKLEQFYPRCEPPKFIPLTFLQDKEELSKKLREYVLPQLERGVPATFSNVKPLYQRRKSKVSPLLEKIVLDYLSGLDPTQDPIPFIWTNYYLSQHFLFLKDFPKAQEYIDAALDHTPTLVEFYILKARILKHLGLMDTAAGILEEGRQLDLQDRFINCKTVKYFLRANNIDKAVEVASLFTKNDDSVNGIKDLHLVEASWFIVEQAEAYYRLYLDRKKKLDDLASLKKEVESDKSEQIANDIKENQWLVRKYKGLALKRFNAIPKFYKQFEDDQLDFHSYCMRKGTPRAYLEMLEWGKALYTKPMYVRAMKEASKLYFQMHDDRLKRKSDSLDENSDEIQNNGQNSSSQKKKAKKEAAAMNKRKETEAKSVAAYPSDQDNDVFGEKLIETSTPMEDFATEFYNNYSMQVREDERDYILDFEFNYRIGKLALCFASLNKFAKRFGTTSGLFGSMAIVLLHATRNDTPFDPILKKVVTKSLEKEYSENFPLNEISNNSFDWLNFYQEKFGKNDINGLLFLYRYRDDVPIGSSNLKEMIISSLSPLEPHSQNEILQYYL

Sequence of Large ribosomal subunit protein uL4A (Saccharomyces cerevisiae), P10664 S2K (P10664 whole entry S2K): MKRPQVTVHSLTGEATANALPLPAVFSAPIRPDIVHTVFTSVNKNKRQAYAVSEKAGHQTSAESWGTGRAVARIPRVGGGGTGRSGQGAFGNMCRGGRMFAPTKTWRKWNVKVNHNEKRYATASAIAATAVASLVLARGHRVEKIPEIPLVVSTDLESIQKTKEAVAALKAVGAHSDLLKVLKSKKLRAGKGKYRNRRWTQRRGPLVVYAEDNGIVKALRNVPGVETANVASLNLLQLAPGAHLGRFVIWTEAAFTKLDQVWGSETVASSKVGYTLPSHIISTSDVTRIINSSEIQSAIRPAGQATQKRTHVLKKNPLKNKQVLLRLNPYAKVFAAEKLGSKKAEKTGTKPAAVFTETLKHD

## Large ribosomal subunit protein uL4A (Saccharomyces cerevisiae), P10664 S2K
  effect of a mutation on the interaction: increasing interaction
